± gives the uncertainty stated by the source.

The nature of the data set: amyloid nucleation score (Sup35N fusion, yeast selection) (log enrichment); library NNK1; higher = more nucleation; inactive = no reads after selection. A digest of the protocol: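 After 24 hours of induction with 100 μM copper sulfate, psi-negative yeast expressing peptides of 20 random codons fused to Sup35N were grown for 7 days at 30°C on medium lacking adenine and uracil. Input and output plasmid inserts were sequenced with Illumina, and sequences with under 100 input reads were discarded. Scores for nucleation are the DiMSum log enrichment of output over input reads, centred on the mode score of non-aggregating sequences.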
For TWPVLSDGQAGELRVRMGSA, the amyloid nucleation score came out at 0.741 ± 0.88.
The value for TWSRAQM was “inactive”; that for TWTCDSVCCVRNKEVCGVYQ was 0.033 ± 0.23.
The result for TYERICGCMFCLTCSSDAF reads -0.19 ± 0.71; that for TYGRASRALGDFRQITRVAS, -1.38 ± 1.7.
The result for TYLFSTVGVSGSSMSQVYIV reads -0.387 ± 0.46; that for TYRFGCTLPLLRMCFIP, 0.435 ± 0.71.
Consider TYRKYLRVRTLDERHGSVYE, for which the amyloid nucleation score worked out at 0.147 ± 0.35.
The value for TYSPQLLYNYPLCLVFLSCL was 2.83 ± 0.15; that for TYTCVNPVGHFTGGNRGILW was 0.425 ± 1.1; that for TYTPRETTSTCSAYSFYMLK was 1.26 ± 0.15.
The value for TYTVGHYVAFWSRRVKSNES was 0.392 ± 0.67.
The result for TYVLTP reads -0.454 ± 1.6; that for TYYVRCLGLLGLNPTFRSPR, 0.365 ± 0.36; that for VAFNICSENRLVNFR, -0.577 ± 0.4.
As to VAKSRCYTQCGLGYLSRKLA, the amyloid nucleation score result was “inactive”.
Turning to VALAIIRPY, the amyloid nucleation score was -0.431 ± 0.27.
The value for VAQLRIKVCKDPGTWLQVHH was 1.48 ± 0.74; that for VATIQRISGIKQESAGSRTF was -0.07 ± 0.93; that for VAWLNCSTKVGL was -0.053 ± 1.3.
The result for VCAQFSRGRIFTAIVIGWTQ reads 0.857 ± 0.64.
VCCYILAYNMFGVLAEWLCG came in with an amyloid nucleation score of 3.66 ± 0.069.
The result for VCESVNNAHAAYSAVLSVQM reads -0.347 ± 0.54; that for VCFMKCLLSCAIEYSRRLDI, 1.9 ± 0.64.
The result for VCGGETLPRVVSNGGRSPRV reads 0.602 ± 0.35; that for VCIIIVYRIYLSYMCPISY, -0.463 ± 0.37; that for VCLGLSQDLHKSYTVRSAT, -0.009 ± 0.41.
On to VCNIPNFCQKQCLSFTTIRY, for which the amyloid nucleation score was determined as 2 ± 0.12.
The result for VCNWVSLGVALHRALEQLGI reads -1.32 ± 0.92; that for VCRQMYVLDCYS, “inactive”; that for VCSLSVYRTCSRDLFNFIWV, 0.262 ± 0.41.
The value for VDCLGFLEHICGLGDIIKTK was 0.341 ± 0.25.
The value for VDCPIECTAAGRSHDSGV was 1.42 ± 0.63; that for VDGSSCFGCAGCTTRRFTSG was -0.253 ± 0.43; that for VDLALLYCDIKMQLV was 1.14 ± 0.88.
Take VDLLGTTDGRSRVLFRIRTR: the amyloid nucleation score came to 0.151 ± 0.59.
The value for VDLNSGQSMNLGTYECRSNV was -1.49 ± 1.8; that for VDLPFMLAKVR was 0.856 ± 0.71.
In turn, VDLSLLIMVFQFGGVGERLR registered an amyloid nucleation score of 2.15 ± 0.17.
The value for VDRCGFGVFATVGMSCMDSF was 0.918 ± 0.45.
The value for VDWSVAWHWLLSSD was 0.484 ± 0.49; that for VEIGFFQRHKARIFMGTRSL was -0.209 ± 0.34; that for VELQYDLYCFSSFADPLS was 1.29 ± 0.6.
The result for VENNWIWVGRTLNATLDSHQ reads 0.082 ± 0.26; that for VERFDLHLSD, 1.06 ± 0.6.
Take VESDKCQLGTLSIMYICFFL: the amyloid nucleation score result was “inactive”.
The result for VEYSVTCFLNYY reads 5.71 ± 0.059; that for VFCSQGMADTLR, 0.409 ± 0.84.
The value for VFGLAV was -0.912 ± 1.1.
The value for VFGLLPVSSCIVRNRRDLRN was -0.371 ± 0.27; that for VFHNYFLRTYTNRRARSVSI was 2.86 ± 0.14; that for VFIYTAACP was 0.492 ± 0.45.
As for VFLACNMMYDTKVQTHGYRG, the amyloid nucleation score came to 4.23 ± 0.07.
The value for VFLWDSHV was -0.505 ± 0.39; that for VFMSLESFYKYNYTHFFFRK was 0.114 ± 0.39.
In turn, VFNTVVS showed an amyloid nucleation score of -0.161 ± 0.41.
The value for VFSLYSTQKLSRRVIGMLGL was 0.725 ± 0.81.
VFYDVGGVSD showed an amyloid nucleation score of 0.03 ± 0.48.
As to VGCVWAQEDRVPT, the amyloid nucleation score was -0.715 ± 0.83.
The result for VGEQPYFGVFTTRYVMARYA reads 0.487 ± 0.71.
The result for VGEQSCLLFYMKQ reads 0.247 ± 0.29; that for VGFGQSHGVFRCGVMRLRRG, 0.192 ± 1.1; that for VGFNKL, 0.013 ± 0.6.
The substance VGFRVDFNIDLQLFLYRNEK returned an amyloid nucleation score of 0.334 ± 0.81.
Regarding VGFVLFLANSERYCDRISFG, the amyloid nucleation score is -0.13 ± 0.97.
The value for VGFYCHLCGYLVWGRWKHSA was 1.18 ± 0.97; that for VGIGLSFQTEQSVCTDLLYS was -0.203 ± 0.69; that for VGLLKAAEDGVLRIGVRRSW was 0.631 ± 0.8.
The result for VGLNMLKNFNPDLSAKDITH reads -0.176 ± 1.1; that for VGRSQRMQKTLKVSVWYWIN, 0.117 ± 0.7.
The value for VGRYFTMCFYKSMHRCRRVF was 0.266 ± 0.38.
In the case of VGTTLRFWGKLFNPVDKAIR, the amyloid nucleation score was -0.619 ± 0.46.
The value for VHCLLAGRKMNFGLFCINVQ was -0.025 ± 0.68.
The value for VHFEGFWAFTLVDLT was 0.232 ± 0.48; that for VHFRYNIVTVSPQVIKFFST was 5.36 ± 0.071.
In turn, VHLTSPYHCRVPDMNSCYGS showed an amyloid nucleation score of 0.371 ± 0.91.
The result for VHRIYKCALRVSRADSLIVT reads “inactive”.
The value for VHRQMEMIIKIVWTRAYAFT was 2.33 ± 0.6.
The value for VHTMSLWCDISQLIVPVNRV was 1.1 ± 0.52; that for VIAMDNDRYFGSVFSYIRMN was -0.147 ± 0.29; that for VIASELSSCFSLRHNVVTTS was -0.469 ± 1.2.
In the case of VIDYVGFRHTGGGSVGFVGG, the amyloid nucleation score was -0.387 ± 0.65.
The result for VIGLSQWVNSLSYRFEMQNL reads 4.72 ± 0.094; that for VIGSCRTCMS, 0.135 ± 0.3.
The value for VIGVRAQYLCRHTLSVRYRK was 1.67 ± 0.4; that for VILSYCLIFLK was -0.647 ± 0.48.
The result for VIMCYR reads -0.309 ± 0.29.
Regarding VIPVLWAVLWEAIIYEEGGA, the amyloid nucleation score was found to be 0.778 ± 0.22.
The value for VIQEPKFMYLQLFVGLPCVS was 4.51 ± 0.09.
Regarding VISVNLGFFPSFVIRASVAS, the amyloid nucleation score amounted to 5.45 ± 0.079.
Turning to VIVARQFISPSVYGDAMDHS, the amyloid nucleation score was 1.15 ± 0.97.
The value for VIVVVPLFGGRLCRVVRHR was 0.278 ± 0.62; that for VIWSNWRRRVPEGPDERYKR was 0.649 ± 0.46.
For the substance VKCPVGDDHWGSRGDASVIT, the amyloid nucleation score is -0.004 ± 0.8.
The value for VKCYLDLINFRYLLDLGDEA was 0.066 ± 0.2.
The value for VKGLRSLGSTCRSLKDGITV was “inactive”; that for VKGQHFQLKIVRRLRTFRHH was 3.79 ± 0.066.
The result for VKGVVYAGH reads -1.44 ± 1.8; that for VKKGILLSVLDASFRTSVYE, -0.424 ± 0.88; that for VKLGDNNTRQLTYSGS, 1.71 ± 0.73.
In turn, VKQTGLVARMRWVTGLARDG had an amyloid nucleation score of -0.921 ± 1.3.
The result for VKVCSSSMRFNVL reads 0.689 ± 0.58.
As for VKVIVIHAAC, the amyloid nucleation score is -0.256 ± 0.31.
VKVRFIRIYYFFCNSKDFRG yielded an amyloid nucleation score of -0.308 ± 0.31.
The result for VKVVALRIWRSEDLVVRFWG reads 0.562 ± 0.78.
The value for VKYWFVVGVVLSWFTER was -0.304 ± 0.24; that for VLDGNKLQSRSLSCSSWYLS was 4.03 ± 0.12; that for VLFHHSSQIRVI was “inactive”.
VLGDSARVCSGDGV came in with an amyloid nucleation score of 0.494 ± 0.74.
The value for VLGKLEWCNLSSVTRAPCFM was 0.14 ± 0.71; that for VLGLGSC was -0.15 ± 0.54; that for VLGMAEATADFSPIWVSKCS was 0.455 ± 1.4.
The substance VLGSKKWDDLGYLYCRLCTH showed an amyloid nucleation score of 0.64 ± 0.65.
Substance VLGYAFYCYLCRNLRRNNFS displayed an amyloid nucleation score of 0.864 ± 0.53.
VLIFWWIMKGRFWVMCSAGY had an amyloid nucleation score of 0.621 ± 0.89.
The value for VLISPGFLSVARCLSLDTLF was -0.343 ± 0.33.
The result for VLKCHSGSCRIYTNDSYVAL reads 0.387 ± 0.17; that for VLLDGAKMSESAEGGISALW, -0.161 ± 0.46.
The substance VLLSQIVGIWAL had an amyloid nucleation score of -0.642 ± 0.67.
The result for VLLVGVSDESRSRSPQGMSP reads 0.243 ± 0.84; that for VLMFIINSCKR, 7.028 ± 0.052.
The value for VLMMLNGTDVKWMESANELS was 0.49 ± 0.41; that for VLMMVLGRWDTSSVMFIMMV was 0.343 ± 0.97.
The result for VLPLQKPRDVGSVISARQWG reads 0.837 ± 0.53.
VLPRVWCCNADNDSIVDFRG showed an amyloid nucleation score of 2.35 ± 0.097.
The result for VLRQMS reads 1.67 ± 0.19; that for VLRWLRKRSFSI, -0.076 ± 0.6; that for VLSEVDWLSIFHGWMFGVRC, 0.434 ± 1.4.
Substance VLSPFTVKIDIKSKISVLGP gave an amyloid nucleation score of 4.11 ± 0.15.
The result for VLSPKSNIGDMSLIFMNTAA reads 0.54 ± 0.79; that for VLSRIHCCRTPVDNGFRPQG, -0.95 ± 0.94; that for VLTLSTKLCLHRGGWTTKPT, 4.2 ± 0.068.
On to VLTTS, for which the amyloid nucleation score was -0.086 ± 0.26.
The result for VLVHKDSG reads -0.852 ± 0.71.
For the substance VLVMVEFTMLEALWRCLAVG, the amyloid nucleation score was -0.297 ± 0.5.
VMCAT had an amyloid nucleation score of -0.048 ± 0.59.
With VMFTTRSWSGDNVFLCV, the amyloid nucleation score result is “inactive”.
In the case of VMLGGSPHMPIAN, the amyloid nucleation score was found to be 0.047 ± 0.41.

For the origin of these results see the supplement of paper PMC12042874.
